These are literature values, as cited in PMC3176300.

One data set has as its target Megalin (UniProt P98164).
Another data set addresses Sortilin (Homo sapiens) (UniProt Q99523).
Data set [1] has as its target α-Galactosidase A (Homo sapiens) (UniProt P06280). Description: SPR. On the technique in general: In SPR one partner is held on a chip, and binding of the other changes the refractive index at the surface.
UniProt P06280, sequence (P06280 32-429): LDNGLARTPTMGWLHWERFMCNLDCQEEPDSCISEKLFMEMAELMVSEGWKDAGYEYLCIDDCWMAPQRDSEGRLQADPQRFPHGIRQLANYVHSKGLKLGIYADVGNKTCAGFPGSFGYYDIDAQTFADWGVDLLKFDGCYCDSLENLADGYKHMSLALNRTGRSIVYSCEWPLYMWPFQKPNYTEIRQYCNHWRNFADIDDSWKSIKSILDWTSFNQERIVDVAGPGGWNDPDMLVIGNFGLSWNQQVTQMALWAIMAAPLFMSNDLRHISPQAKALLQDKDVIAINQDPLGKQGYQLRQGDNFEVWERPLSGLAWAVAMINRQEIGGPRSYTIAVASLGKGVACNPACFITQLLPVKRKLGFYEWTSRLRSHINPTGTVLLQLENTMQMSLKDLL

Megalin, sequence (P98164 26-4655): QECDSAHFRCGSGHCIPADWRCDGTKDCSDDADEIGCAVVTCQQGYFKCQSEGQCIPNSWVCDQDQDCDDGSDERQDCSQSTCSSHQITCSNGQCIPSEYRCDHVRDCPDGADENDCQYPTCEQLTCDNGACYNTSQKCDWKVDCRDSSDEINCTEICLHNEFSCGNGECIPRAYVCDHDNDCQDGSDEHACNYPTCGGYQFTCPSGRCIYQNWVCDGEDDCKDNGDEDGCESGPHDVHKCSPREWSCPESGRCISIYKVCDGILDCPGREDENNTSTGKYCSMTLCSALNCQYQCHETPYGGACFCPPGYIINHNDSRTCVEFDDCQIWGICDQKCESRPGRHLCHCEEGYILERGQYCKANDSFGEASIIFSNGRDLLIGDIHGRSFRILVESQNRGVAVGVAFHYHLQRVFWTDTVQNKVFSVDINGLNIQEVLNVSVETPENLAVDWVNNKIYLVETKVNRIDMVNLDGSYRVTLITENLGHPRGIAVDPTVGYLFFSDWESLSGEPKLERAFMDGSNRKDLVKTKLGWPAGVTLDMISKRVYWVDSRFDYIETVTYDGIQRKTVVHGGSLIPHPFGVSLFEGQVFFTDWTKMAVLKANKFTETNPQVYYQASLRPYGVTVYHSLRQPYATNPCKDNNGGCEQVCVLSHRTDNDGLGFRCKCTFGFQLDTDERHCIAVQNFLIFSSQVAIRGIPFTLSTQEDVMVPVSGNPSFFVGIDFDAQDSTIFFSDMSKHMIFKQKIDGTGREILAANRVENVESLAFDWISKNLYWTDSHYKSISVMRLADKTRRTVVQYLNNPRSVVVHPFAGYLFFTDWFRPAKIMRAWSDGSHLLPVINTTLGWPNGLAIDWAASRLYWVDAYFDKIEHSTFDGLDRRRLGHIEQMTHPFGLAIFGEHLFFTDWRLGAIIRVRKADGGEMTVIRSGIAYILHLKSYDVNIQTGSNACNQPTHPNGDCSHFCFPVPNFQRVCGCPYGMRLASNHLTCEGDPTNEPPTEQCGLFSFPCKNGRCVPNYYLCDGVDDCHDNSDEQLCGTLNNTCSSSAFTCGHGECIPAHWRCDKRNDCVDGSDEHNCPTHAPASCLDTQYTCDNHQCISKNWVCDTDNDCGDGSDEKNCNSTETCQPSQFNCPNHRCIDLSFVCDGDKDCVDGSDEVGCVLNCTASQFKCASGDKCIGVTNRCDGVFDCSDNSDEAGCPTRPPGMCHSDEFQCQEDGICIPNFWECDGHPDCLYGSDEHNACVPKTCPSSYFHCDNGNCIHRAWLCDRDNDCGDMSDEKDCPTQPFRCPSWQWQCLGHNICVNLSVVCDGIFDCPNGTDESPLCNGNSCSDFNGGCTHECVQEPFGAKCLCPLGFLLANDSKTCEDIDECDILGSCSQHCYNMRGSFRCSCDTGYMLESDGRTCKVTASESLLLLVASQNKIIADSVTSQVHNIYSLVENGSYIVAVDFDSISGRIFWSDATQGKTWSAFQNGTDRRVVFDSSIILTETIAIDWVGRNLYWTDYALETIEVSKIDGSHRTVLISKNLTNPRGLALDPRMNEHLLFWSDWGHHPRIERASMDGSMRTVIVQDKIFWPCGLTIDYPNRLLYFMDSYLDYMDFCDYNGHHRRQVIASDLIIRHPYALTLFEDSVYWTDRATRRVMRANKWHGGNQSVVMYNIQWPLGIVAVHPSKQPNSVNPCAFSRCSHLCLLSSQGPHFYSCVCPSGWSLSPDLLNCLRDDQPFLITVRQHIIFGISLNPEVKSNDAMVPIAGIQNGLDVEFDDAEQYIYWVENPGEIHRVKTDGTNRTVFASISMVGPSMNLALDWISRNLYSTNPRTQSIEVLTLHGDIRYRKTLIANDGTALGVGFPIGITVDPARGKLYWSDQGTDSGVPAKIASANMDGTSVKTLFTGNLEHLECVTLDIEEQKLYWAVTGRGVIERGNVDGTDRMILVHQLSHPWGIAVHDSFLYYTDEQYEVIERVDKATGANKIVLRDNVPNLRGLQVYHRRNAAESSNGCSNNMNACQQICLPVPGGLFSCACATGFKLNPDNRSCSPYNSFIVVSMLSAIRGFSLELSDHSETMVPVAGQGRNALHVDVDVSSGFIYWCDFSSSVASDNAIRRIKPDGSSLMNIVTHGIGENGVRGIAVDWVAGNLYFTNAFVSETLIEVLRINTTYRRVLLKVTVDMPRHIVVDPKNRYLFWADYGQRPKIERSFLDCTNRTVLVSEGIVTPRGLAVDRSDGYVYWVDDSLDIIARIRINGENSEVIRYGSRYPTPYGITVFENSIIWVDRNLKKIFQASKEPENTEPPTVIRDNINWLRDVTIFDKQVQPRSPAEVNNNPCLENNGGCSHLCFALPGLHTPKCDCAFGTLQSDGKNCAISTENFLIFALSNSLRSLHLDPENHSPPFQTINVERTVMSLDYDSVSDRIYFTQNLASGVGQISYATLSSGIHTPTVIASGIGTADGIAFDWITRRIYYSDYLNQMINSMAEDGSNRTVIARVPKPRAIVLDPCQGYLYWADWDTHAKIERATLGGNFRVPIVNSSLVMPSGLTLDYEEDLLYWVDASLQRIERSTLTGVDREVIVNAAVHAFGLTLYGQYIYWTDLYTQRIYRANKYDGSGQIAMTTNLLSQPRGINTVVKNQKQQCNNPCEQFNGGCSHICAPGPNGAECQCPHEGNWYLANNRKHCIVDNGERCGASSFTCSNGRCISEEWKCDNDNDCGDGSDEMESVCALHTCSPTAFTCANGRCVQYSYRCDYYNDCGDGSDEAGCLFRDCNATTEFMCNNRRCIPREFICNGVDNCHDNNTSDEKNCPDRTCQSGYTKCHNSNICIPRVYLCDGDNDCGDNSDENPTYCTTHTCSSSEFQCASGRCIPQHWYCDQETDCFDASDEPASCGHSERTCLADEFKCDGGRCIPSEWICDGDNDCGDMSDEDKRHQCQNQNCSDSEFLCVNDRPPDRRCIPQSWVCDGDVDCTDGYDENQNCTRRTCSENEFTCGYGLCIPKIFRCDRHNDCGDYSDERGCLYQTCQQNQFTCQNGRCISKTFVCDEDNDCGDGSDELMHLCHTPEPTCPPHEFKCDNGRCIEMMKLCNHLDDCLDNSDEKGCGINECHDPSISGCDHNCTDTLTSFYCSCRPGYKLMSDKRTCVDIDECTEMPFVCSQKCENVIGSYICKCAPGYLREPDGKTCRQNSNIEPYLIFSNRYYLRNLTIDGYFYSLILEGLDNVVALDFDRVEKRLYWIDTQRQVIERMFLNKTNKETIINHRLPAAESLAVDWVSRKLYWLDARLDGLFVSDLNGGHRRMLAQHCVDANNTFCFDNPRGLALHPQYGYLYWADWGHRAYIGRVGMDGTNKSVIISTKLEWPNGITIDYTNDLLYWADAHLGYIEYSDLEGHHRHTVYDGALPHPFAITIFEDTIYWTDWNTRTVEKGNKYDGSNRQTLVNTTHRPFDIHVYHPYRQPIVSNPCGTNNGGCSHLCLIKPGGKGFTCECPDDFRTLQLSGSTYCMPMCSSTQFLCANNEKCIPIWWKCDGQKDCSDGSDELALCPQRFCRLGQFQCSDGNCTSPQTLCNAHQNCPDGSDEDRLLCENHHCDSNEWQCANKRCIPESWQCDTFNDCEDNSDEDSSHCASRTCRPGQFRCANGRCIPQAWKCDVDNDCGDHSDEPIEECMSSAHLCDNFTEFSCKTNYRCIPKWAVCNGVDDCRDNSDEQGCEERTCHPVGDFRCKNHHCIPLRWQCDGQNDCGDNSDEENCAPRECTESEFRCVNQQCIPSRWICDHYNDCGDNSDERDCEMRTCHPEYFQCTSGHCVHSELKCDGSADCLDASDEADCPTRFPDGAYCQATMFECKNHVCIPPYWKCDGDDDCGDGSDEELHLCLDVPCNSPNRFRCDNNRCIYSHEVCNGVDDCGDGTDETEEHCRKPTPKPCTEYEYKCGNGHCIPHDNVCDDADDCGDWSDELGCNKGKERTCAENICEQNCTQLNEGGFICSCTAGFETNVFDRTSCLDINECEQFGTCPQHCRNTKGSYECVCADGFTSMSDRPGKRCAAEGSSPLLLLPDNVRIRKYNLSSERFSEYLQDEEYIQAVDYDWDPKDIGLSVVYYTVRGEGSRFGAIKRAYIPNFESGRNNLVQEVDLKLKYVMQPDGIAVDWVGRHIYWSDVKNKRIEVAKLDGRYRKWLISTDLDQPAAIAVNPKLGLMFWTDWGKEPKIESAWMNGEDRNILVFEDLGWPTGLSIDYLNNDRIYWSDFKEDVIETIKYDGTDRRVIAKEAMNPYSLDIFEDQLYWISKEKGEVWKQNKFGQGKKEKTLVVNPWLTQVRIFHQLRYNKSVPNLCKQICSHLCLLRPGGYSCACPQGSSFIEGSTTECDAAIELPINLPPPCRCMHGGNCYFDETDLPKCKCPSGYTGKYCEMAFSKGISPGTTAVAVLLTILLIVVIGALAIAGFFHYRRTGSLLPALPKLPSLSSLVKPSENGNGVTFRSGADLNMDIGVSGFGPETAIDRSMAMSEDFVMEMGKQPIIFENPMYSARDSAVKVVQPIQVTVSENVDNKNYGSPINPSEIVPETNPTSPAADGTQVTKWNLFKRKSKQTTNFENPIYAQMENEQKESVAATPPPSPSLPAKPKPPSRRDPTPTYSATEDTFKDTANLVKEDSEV

By Kd is commonly meant the equilibrium constant for the complex coming apart. Take RAP (from UniProt P30533): the figures for the Kd in the data set with Megalin and in the data set with Sortilin (Homo sapiens) were 8 nM and 78 nM, respectively.
As for Megalin (from UniProt P98164), the Kd in data set [1] is 600 nM.
